Measurements as given in doi:10.1101/2020.10.23.350348.

Molecular target: transferrin receptor (UniProt P02786)
Assay: SPR

Sequence of transferrin receptor (P02786 whole entry): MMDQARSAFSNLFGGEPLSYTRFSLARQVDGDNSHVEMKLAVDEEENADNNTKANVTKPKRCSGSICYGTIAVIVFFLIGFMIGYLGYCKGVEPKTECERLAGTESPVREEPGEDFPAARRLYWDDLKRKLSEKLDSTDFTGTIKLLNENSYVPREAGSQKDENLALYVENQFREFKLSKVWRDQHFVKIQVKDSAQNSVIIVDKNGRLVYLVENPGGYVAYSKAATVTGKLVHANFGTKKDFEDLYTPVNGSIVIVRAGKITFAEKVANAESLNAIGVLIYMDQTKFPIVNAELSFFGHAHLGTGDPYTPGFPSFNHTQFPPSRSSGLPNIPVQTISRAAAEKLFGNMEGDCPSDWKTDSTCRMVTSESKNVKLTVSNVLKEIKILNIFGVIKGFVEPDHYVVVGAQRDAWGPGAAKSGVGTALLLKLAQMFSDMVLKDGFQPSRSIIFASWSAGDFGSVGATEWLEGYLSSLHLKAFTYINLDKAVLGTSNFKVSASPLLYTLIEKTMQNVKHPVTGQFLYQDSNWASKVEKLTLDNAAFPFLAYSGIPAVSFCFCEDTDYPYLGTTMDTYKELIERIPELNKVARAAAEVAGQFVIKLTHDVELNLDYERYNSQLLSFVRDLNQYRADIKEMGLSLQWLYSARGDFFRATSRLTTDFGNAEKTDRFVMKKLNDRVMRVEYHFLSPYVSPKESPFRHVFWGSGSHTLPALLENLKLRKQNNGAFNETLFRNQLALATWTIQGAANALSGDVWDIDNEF

For “SARS-CoV-2 spike protein (from UniProt P0DTC2 14-1273) (natural protein)”, the Kd was 2.95 nM.
